Assay results as given in doi:10.1101/2024.12.20.629688, “The PH domain in the ArfGAP ASAP1 drives catalytic activation through an unprecedented allosteric mechanism” (bioRxiv, 2024).

T1: ASAP1 ZA domain (Arf GAP and ankyrin repeat domains), [431–724]ASAP1 (UniProt Q9QWY8 431-724)
T1 construct: Isotopically labelled for the PRE experiment; also called ^ΔPHZA; isolated ZA domain; source: recombinant; expression not described
T1 sequence (looked up): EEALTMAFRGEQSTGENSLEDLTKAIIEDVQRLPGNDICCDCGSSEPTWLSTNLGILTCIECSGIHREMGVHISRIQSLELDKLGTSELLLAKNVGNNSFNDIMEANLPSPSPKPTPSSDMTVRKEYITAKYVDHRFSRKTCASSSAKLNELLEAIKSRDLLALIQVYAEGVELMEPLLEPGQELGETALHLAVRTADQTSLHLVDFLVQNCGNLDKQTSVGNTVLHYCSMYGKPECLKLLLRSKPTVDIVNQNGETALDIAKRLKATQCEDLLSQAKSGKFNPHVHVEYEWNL


Experiments:
[1] = molecular target: T1, ASAP1 ZA domain (Arf GAP and ankyrin …); test: NMR paramagnetic relaxation enhancement; Cys159-MTSL myrArf1 (non-hydrolysable GTP analog) alone or in complex with wt PH on nanodiscs, 100 μM, with 100 μM isolated isotopically labelled ZA domain; details: both partners purified
[2] = molecular target: T2, myristoylated human Arf1, GTP-bound form, anchored on membrane (nanodiscs or LUVs) (human, UniProt P84077 1-181, N-myristoylated); test: other fluorescence titration + other: inhibition of the GAP activity of wt PZA; proxies for affinity: (1) rate of mant-GTP dissociation from myrArf1 (Trp to mant FRET) against PH concentration, LUVs with 5 mol% PI(4,5)P2, excess GTP; (2) IC50 of PH domain on GTP hydrolysis in 3 min with myrArf1·GTP below the Km and 1 nM wt PZA; details: both partners purified
T2 construct: human Arf1 (ADP-ribosylation factor 1), UniProt P84077, co-expressed with yeast N-myristoyltransferase (UniProt P14743); Loaded with GTP, GTPγS or mant-GTP according to the experiment; Isotope-labelled for NMR; also called myrArf1; myr-Arf1
T2 sequence (P84077 whole entry, the tested form may be a part): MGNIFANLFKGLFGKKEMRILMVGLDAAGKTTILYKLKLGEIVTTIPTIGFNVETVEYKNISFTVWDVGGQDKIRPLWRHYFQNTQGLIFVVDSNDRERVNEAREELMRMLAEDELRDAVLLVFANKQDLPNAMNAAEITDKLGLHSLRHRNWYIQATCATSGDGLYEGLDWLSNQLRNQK

[3] = molecular target: T2, myristoylated human Arf1, GTP-bound …; test: cell-based or functional assay

Kd [1] | affinity relative to wt PH [2] | “in trans” effect of the PH domain on GTP hydrolysis on myrArf1 by the isolated ZA domain (LUVs), relative to wt PH [3] | Binder
100 to 1000 µM |  |  | Cys159-MTSL tagged myrArf1 (natural protein, N-myristoylated; MTSL spin label on the native Cys159, human Arf1, UniProt P84077; source: E. coli BL21 Star (DE3), co-expressed with yeast NMT, purified; spin-labelled on nanodiscs) not shown
 | ~0.5 fold of wt PH | 0.01 fold of wt PH | ΔN14 ASAP1 PH domain, [339–451]ASAP1 (domain or fragment, UniProt Q9QWY8 339-451, looked up, ASAP1 PH domain without residues 325-338 (the first 14 residues of the wt PH construct), residues 339-451; also called ^ΔN14PH) GSEKKGFLLKKSDGIRKVWQRRKCAVKNGILTISHATSNRQPAKLNLLTCQVKPNAEDKKSFDLISHNRTYHFQAEDEQDYIAWISVLTNSKEEALTMAFRGEQSTGENSLED
